Drawing on a protein production outcome set (Wang et al. 2014), this text covers protein production for 29 sequences.

This data set is described as follows: label from the status in PepcDB records.
Turning to “KEGVLCLNTKGQITYANSQALKLLGGSLEELYGKTPQHYFTLENTEGKGMGELLERVLCGESTLQEGSGTLYKKERFLAHVEFTLSPIIDKG”, the protein production entry was “failed”.

Take “KEQILSSEQLARKMMLELGDKKQEHLVAIYMDTQNRIIEQRTIFIGTVRRSVAEPREILHYACKNMATSLIIIHNHPSGSPKPSESDLSFTKKIKRSCDHLGIVCLDHIIVGKNKYYSFREEADIL”: the protein production result is “not failed”.

In the case of “KFGELREISGNQYVNEVTNAEKDLWVVIHLYRSSVPMCLVVNQHLSVLARKFPETKFVKAIVNSCIEHYHDNCLPTIFVYKNGQIEGKFIGIIECGGINLKLEELEWKLSEVGAIQSDLEEN”, the protein production entry was “not failed”.

“KGTLRRITEIAEVSGIEGESIQLNFLYKYDPAKDELIRTEVPSRFIQTLSYHTGLSIEELKWEIEKRRLILDWMIEKGIRRIDEVGYYIKEFYIDEEELLKKIE”: the protein production result is given as “failed”. Take “KKKSIPQPTNALKSFNWSKLPENKLEGTVWTEIDDTKVFKILDLEDLERTFSAYQRQQDFFVNSNSKQKEADAIDDTLSSKLKVKELSVIDGRRAQNCNILLSRLKLSNDEIKRAILTMDEQEDLPKDMLEQLLKFVPEKSDIDLLEEHKHELDRMAKADRFLFEMSRINHYQQRLQSLYFKKKFAERVAEVKPKVEAIRSGSEEVFRSGALKQLLEVVLAFGNYMNKGQRGNAYGFKISSLNKIADTKSSIDKNITLLHYLITIVENKYPSVLNLNEELRDIPQAAKVN”: the protein production result is “failed”. As for “KKPLSVFKGPLLHISPAEELYFGSIESGEKKTLIVLTNVTKNIVAFKVRTTAPEKYRVKPSNSSCDPGASIDIIVSPHGGLTVSAQDRFLIMAAEMEQSSGTGPAELSQFWKEVPRNKVMEHRLRCHTVESSKPNSLML”, the protein production result is reported as “not failed”. Regarding “KNASVITVGNEILKGRTVNTNAAFIGNFLTYHGYQVRRGFVVMDDLDEIGWAFRVALEVSDLVVSSGGLGPTFDDMTVEGFAKCIGQDLRIDEDALAMIKKKYGQADLTPQRLKMAKIPPSCRPIENPVGTAPGLICAVGGKKVIILPGVPKEMEALLKAMEKDIIIPD”, the protein production result is “not failed”.

For “KNFNPPTRRNWESNYFGMPLQDLVTAEKPIPLFVEKCVEFIEDTGLCTEGLYRVSGNKTDQDNIQKQFDQDHNINLVSMEVTVNAVAGALKAFFADLPDPLIPYSLHPELLEAAKIPDKTERLHALKEIVKKFHPVNYDVFRYVITHLNRVSQQHKINLMTADNLSICFWPTLMRPDFENREFLSTTKIHQSVVETFIQQCQFFFYNGEIVE”, the protein production entry is recorded as “not failed”. Regarding “KNIVVDFTEYNPLHNGHKYCMDFGKSEGLFISVIPGPLERSGRGIPYLVNRHIRAEMALLAGADLVVEGPPMGIMGSGQYMQCLIKIFSALNGDIIPRGYIEEETMERVINSINNGNHIKIKPYNISCIETREKLGEKLEIDNYVIASMSYTIYKLKENFPKWNPKFKFIERIEGISGTKIREGVFNNNFESIKHMLPITTIDVFKNFGDNLSEIILKRNEEMVLDTVNNFDLNKYLPENISEKLNEKEYYESIE”, the protein production entry is listed as “not failed”. “KNRIGTKALNFTYTLASGAQGSLYQLKAEYLLLFINNPGCQACTETIEGLKNAPIINQLLQEKKLVLLSIYPDEELDEWKKHLSEFPNEWINGYDKKFTIKEEQVYDLKAIPTLYLLDKDKTVLLKDATAPAIEAYLMQH”: the protein production entry was “not failed”. For “KPIPLAVIVVLGCFALGLGGIIGFVHKGEDYQAYQKLQWHTLAPEKIAPLVAQGYTVFVDITSDWCSICQTNKAEVTHREQVVNALMADDIILMQGNWSEADNTIAGYMQYEGIPGTPYNKIYGPRNPNGIVLPSKLTIEAVINGLAQAKAL” the value was “failed”.

For the sequence “KQAEMEVKRESYARERSTVARIQFRLPDGSSFTNQFPSDAPLEEARQFAAQTVGNTYGNFSLATMFPRREFTKEDYKKKLLDLELAPSASVVLLP”, the protein production entry is recorded as “failed”. Take “KQLLTLKIKCSNQPERQILEKQLPDSMTVQKVKGLLSRLLKVPVSELLLSYESSKMPGREIELENDLQPLQFYSVENGDCLLVR”: the protein production result is on record as “not failed”. As to “KREHAKQHGMIRTEITGAEIAEEMEKERRLFQLQMCEYLIKVNEIKTKKGVDLLQNLIKYYHAQCNFFQDGLKTADKLKQYIEKLAADLYNIKQTQDEEKKQLTALRDLIKSSLQLDQKESRRDSQSRQGGYSMHQLQGNKEYGSEKKGYLLKKSDGIRKVWQRRKCSVKNGILTISHATSNRQPAKLNLLTCQVKPNAEDKKSFDLISHNRTYHFQAEDEQDYVAWISVLTNSKEEALTMAFRGEQSAGENSLEDLTKAIIEDVQRLPGNDICCDCGSSEPTWLSTNLGILTCIECSGIHREMGVHISRIQSLELDKLGTSELLLAKNVGNNSFNDIMEANLPSPSPKPTPSSDMTVRKEYITAKYVDHRFSRKTCSTSSAKLNELLEAIKSRDLLALIQVYAEGVELMEPLLEPGQELGETALHLAVRTADQTSLHLVDFLVQNCGNLDKQTALGNTVLHYCSMYSKPECLKLLLRSKPTVDIVNQAGETALDIAKRLKATQCEDLLSQAKSGKFNPHVHVEYEWNLRQEEIDESDDDLDDKPSPIKKERSPRPQSFCHSSSISPQDKLALPGFSTPRDKQRLSYGAFTNQIFVSTSTDSPTSPTTEAPPLPPRNAGKGPTGPPSTLPLSTQTSSGSSTLSKKRPPPPPPGHKRTLSDPPSPLPHGPPNKGAVPWGNDGGPSSSSKTTNKFEGLSQQSSTSSAKTALGPRVLPKLPQKVALRKTDHLSLDKATIPPEIFQKSSQLAELPQKPPPGDLPPKPTELAPKPQIGDLPPKPGELPPKPQLGDLPPKPQLSDLPPKPQMKDLPPKPQLGDLLAKSQTGDVSPKAQQPSEVTLKSHPLDLSPNVQSRDAIQKQASEDSNDLTPTLPETPVPLPRKINTGKNKVRRVKTIYDCQADNDDELTFIEGEVIIVTGEEDQEWWIGHIEGQPERKGVFPVSFVHILSD”, the protein production entry is “not failed”.

On to “KRFESPSVIKPNTLTNQQLIETCDQLIENAVKHHLVADVPVGLYLSGGIDSTLLLSKIRKLGHLNFPTFTIANSSREQAFGTRDFEFARLASKLYNSDHHEVSVHAEMLQDLPAFVSMIDQPIGDSALFLTHILSKEAGQHVRVALNGAGADELFAGYNRHSAYKSYLNNLLHKNLAITLIKSTYNILPDGGNHSLKKVFRLWNKFTGMMDVDPIKTCHNFSSSEYFIEKNTSIEVDDKSYEDLSYYLYYCLRNDRTKYLISDILALTDKMTMRSSIEARVPYLDQELRRFVESLDPSVLLKNGRKWILKEVLLRNGGETFLNRPKEGFGMPFGYWLKLPVNKNFVEKLTNKNHPIYEWVPYQTIKNLVDWHLGSKRDCSSELWSVLLLMHWYEKE”, for which the protein production entry was “failed”. For “KRITRPGNTDDPSGGNKVLLLSIQNPLYPITVDVLYTVCNPVGKVQRIVIFKRNGIQAMVEFESVLCAQKAKAALNGADIYAGCCTLKIEYARPTRLNVIRNDNDSWDYTKPYLGRR” the value was “not failed”; for “KRQKIHLGDRSQKCSKCGIIFIRRSTLSRRKTPMCEKCRKDSCQEAALNKDEGNESGKKT”, “not failed”. As for “KTPADNIETADLSASVPTRPAEPERKTLADYGGYPSALDAVKQKNDAAVAAYLENAGDSAMAENVRNEWLKSLGARRQWTLFAQEYAKLEPAGRAQEVECYADSSRNDYTRAAELVKNTGKLPSGCTKLLEQAAASGLLDGNDAWRRVRGLLAGRQTTDARNLAAALGSPFDGGTQGSREYALLNVIGKEARKSPNAAALLSEMESGLSLEQRSFAWGVLGHYQSQNLNVPAALDYYGKVADRRQLTDDQIEWYARAALRARRWDELASVISHMPEKLQKSPTWLYWLARSRAATGNTQEAEKLYKQAAATGRNFYAVLAGEELGRKIDTRNNVPDAGKNSVRRMAEDGAVKRALVLFQNSQSAGDAKMRRQAQAEWRFATRGFDEDKLLTAAQTAFDHGFYDMAVNSAERTDRKLNYTLRYISPFKDTVIRHAQNVNVDPAWVYGLIRQESRFVIGAQSRVGAQGLMQVMPATAREIAGKIGMDAAQLYTADGNIRMGTWYMADTKRRLQNNEVLATAGYNAGPGRARRWQADTPLEGAVYAETIPFSETRDYVKK”, the protein production result was “failed”. For “KVGVLVAAHGMSTASSMAQVVGQLLDDYDVQAFDMPLDMDPSVAYDHVKRRVEKLDSGKGILLLVDMGSLTTFGERIQQETGIATRTIDMVTTPVVLEAVRKASLVDSDLDSMYQELVGFKGYSRISRNLPTDSQ” the value was “failed”; for “KVIIAIDAGHGGQDPGAIGPNGTKEKNVTIAIARKLRALLNADPQFKPVLTRDGDYFISVMGRSEVARKQNANFLVSIHADAAPNRDATGASVWVLSNRRANSEMAGWLEQHEKQSELLGGAGDVLANSQADPYLSQAVLDLQFGHSQRVGYDVATNVLSQLQRIGNLHKRRPEHASLGVLRSPDIPSILVETGFISNNGEERLLGSDDYQEQIAEAIYNGLRNYFMQHPLQSAPRGEAAQTASAAAPGGMLIN”, “failed”; for “KVVLYARVSSKQKDELVNQVKYLEEQVKEYDLVITDIGSGLNMKRKGFLKLLRMILNNEVSRVVIAYPDRLVRFGFEILEETCKAHGCEIVVLNQEEKEEELVEDLISVLVSFSEKLHGMRSHEYEKVKKCAEELKN”, “failed”. Consider “KYANGTFFTYRPEAWDWMYTVAEEFDTIVAGLFGLITGGLLSVDSIAGEFENGTISRLYSLPINRWEIYFGKVIEKI”, for which the protein production entry is given as “failed”. For the sequence “KYNPVVNPERALERRNWILGRMLQLGYINQTQYQQAVAEPINLDMPDRGVSNRYPYIGEMVRAELVEKFGEQAVDSGY”, the protein production result is “failed”. For “KYPFLREAGSSFKDRDVTKMSDLIATWDGQDIKGPALIGVPLSKSSISHSGASFAPGTIRQALKHSSAYSAELGEHVVSELLYDLGDIDIHVTDIVKSHHHIFQTMHALLSDHPDWVPLILGGDNSISYSTIKAIAQTKGTTAVIQFDAHHDVRNTEDGGPTNGTPFRRLLDEEIIEGQHLIQLGIREFSNSQAYEAYAKKHNVNIHTMDMIREKGLIPTIKEILPVVQDKTDFIFISVDMDVLDQSHAPGCPAIGPGGLYTDELLEAVKYIAQQPNVAGIEIVEVDPTLDFRDMTSRAAAHVLLHALK” the value was “failed”; for “LAELFEKAAAHLQGLIQVASREQLLYLYARYKQVKVGNCNTPKPSFFDFEGKQKWEAWKALGDSSPSQAMQEYIAVVKKLDPGWNPQIPEKKGKEA”, “not failed”. Consider “LDKMSKKTRQAIRTSKNKGVDIQFGSHELLEDFAELMKKTEDRKGINLRGIDYYQKLLDTYPNNSYITMASLDVAKRLEKIEKECQIAQSERIKSLELNREKKVKQHQGTIDRLNKEIDFLKEAQKAYDRDIIPLAATLTLEFGNTSENIYAGMDDYFKSYSAPIYTWFETAQRAFERGNIWQNMGGIENDLSGGLYHFKSKFEPII”, for which the protein production entry is reported as “failed”. “LDQILRATVEEVRAFLGTDRVKVYRFDPEGHGTVVAEARGGERLPSLLGLTFPAGDIPEEARRLFRLAQVRVIVDVEAQSRSISQPESWGLSARVPLGEPLQRPVDPCHVHYLKSMGVASSLVVPLMHHQELWGLLVSHHAEPRPYSQEELQVVQLLADQVSIAIAQAELSL”: the protein production entry is reported as “not failed”.

“LDRAYLRVENQRYRDKLEAANRELQASLNLLQEDQNAGRQVQMNMLPVTPWSIEGLEFSHRIIPSLYLSGDFVDYFRVDERRVAFYLADVSGHGASSAFVTVLLKFMTTRLLYESRRNGTLPEFKPSEVLAHINRGLINTKLGKHVTMLGGVIDLEKNSLTYSIGGHLPLPVLFVEGQAGYLEGRGLPVGLFDDATYDDRVMELPPSFSLSLFSDGILDVLPGATLKEKEASLPEQVAAAGGTLDGLRQVFGLANLAEMPDDIALLVLSRNLA”: the protein production result was “failed”. Take “LDSELELPAGWEKIEDPVYGIYYVDHINRKTQYENPVLEAKRKKQLE”: the protein production result is “not failed”.
